# Assay results published in PMC8448959 (ACS chemical biology, 2021).
# Square brackets hold non-standard residues; d marks the D form. Ends that are not written are not given here. * marks the point of attachment. Lys(Et,iPr) = CCN(CCCC[C@H](N)C(=O)O)C(C)C; 4‑piperidine cap = not defined here; cyclohexyl = C1CCC(*)CC1
# T1: MPP8 chromodomain (residues 55-116), N-terminal His-tag (UniProt Q99549-1 55-116)
# T1 sequence (looked up): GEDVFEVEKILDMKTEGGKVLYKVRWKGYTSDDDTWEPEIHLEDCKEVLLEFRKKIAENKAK
# T2: CBX7 chromodomain (residues 8-62), C-terminal His-tag (UniProt O95931 8-62)
# T2 sequence (looked up): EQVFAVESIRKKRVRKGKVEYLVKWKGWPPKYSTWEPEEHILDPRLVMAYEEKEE
# T3: CDYL2 chromodomain (residues 1-75), C-terminal His-tag (UniProt Q8N8U2 1-75)
# T3 sequence (looked up): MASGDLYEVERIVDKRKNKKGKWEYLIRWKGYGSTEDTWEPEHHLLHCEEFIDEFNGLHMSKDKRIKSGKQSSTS
# B1: UNC6216 (peptide)
# chain: FAFKS
# modifications: N-terminal 4-piperidine cap; lysine mimetic with a methyl-cyclopentyl amine; C-terminal methyl ester
# B2: UNC6218 (peptide)
# chain: {4‑piperidine cap}-FAFKS-OMe
# modifications: reading uncertain; also: Lys4: lysine mimetic with a tetrahydropyran substituent
# B3: UNC6254 (peptide)
# chain: FAFKS
# modifications: N-terminal 4-piperidine cap; lysine mimetic with increased steric bulk on the lysine amine; C-terminal methyl ester
# Target: T1, MPP8 chromodomain (residues 55-116), …
# Assay: AlphaScreen or HTRF
row,IC50,Binder
1,1400 nM,{4‑piperidine cap}-FAFKS-OMe (reading uncertain; also: Lys4: lysine mimetic with a pyrroline substituent) [UNC6262]
2,450 nM,B1
3,400 nM,{4‑piperidine cap}-FAFK(cyclohexyl)S-OMe (reading uncertain; also: Lys4: lysine mimetic with a cyclohexyl substituent) [UNC6217]
4,500 nM,B2
5,700 nM,{4‑piperidine cap}-FAFKS-OMe (reading uncertain; also: lysine mimetic with a piperidine substituent) [UNC6127]
6,800 nM,B3

# Target: T2, CBX7 chromodomain (residues 8-62), …
# Assay: AlphaScreen or HTRF
row,IC50,Binder
1,> 30000 nM,{4‑piperidine cap}-FAFKS-OMe (reading uncertain; also: Lys4: lysine mimetic with a pyrroline substituent) [UNC6262]
2,> 30000 nM,B1
3,> 30000 nM,{4‑piperidine cap}-FAFK(cyclohexyl)S-OMe (reading uncertain; also: Lys4: lysine mimetic with a cyclohexyl substituent) [UNC6217]
4,> 30000 nM,B2
5,> 30000 nM,{4‑piperidine cap}-FAFKS-OMe (reading uncertain; also: lysine mimetic with a piperidine substituent) [UNC6127]
6,> 30000 nM,B3

# Target: T3, CDYL2 chromodomain (residues 1-75), …
# Assay: AlphaScreen or HTRF
row,IC50,Binder
1,700 nM,{4‑piperidine cap}-FAFKS-OMe (reading uncertain; also: Lys4: lysine mimetic with a pyrroline substituent) [UNC6262]
2,90 nM,B1
3,70 nM,{4‑piperidine cap}-FAFK(cyclohexyl)S-OMe (reading uncertain; also: Lys4: lysine mimetic with a cyclohexyl substituent) [UNC6217]
4,100 nM,B2
5,200 nM,{4‑piperidine cap}-FAFKS-OMe (reading uncertain; also: lysine mimetic with a piperidine substituent) [UNC6127]
6,200 nM,B3

# Target: T1, MPP8 chromodomain (residues 55-116), …
# Assay: AlphaScreen or HTRF
# Remark: another data set of the same source
row,IC50,Binder
1,900 nM,"FAF[Lys(Et,iPr)]S-OMe (not fully specified (N-terminus); also: N-terminal cap R1 not given here) [UNC6263]"
2,400 nM,"FAF[Lys(Et,iPr)]S-OMe (not fully specified (N-terminus); also: N-terminal cap R1 not given here) [UNC6257]"

# Target: T2, CBX7 chromodomain (residues 8-62), …
# Assay: AlphaScreen or HTRF
# Remark: another data set of the same source
row,IC50,Binder
1,6000 nM,"FAF[Lys(Et,iPr)]S-OMe (not fully specified (N-terminus); also: N-terminal cap R1 not given here) [UNC6263]"
2,7000 nM,"FAF[Lys(Et,iPr)]S-OMe (not fully specified (N-terminus); also: N-terminal cap R1 not given here) [UNC6257]"
